# No end group written: not given here.
# T1: recombinant cytoplasmic tail of CD4 (residues 421-458, C422S, C455S) (human, UniProt P01730 421-458, C422S | C455S)
# T1 chain (looked up): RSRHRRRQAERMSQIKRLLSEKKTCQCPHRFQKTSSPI
# Biological target: T1, recombinant cytoplasmic tail of CD4 …
# Experiment: NMR titration
binder,measurement,value
"SHPEDDWMENIDVCENCHYPIVPLDGKGT (domain or fragment, human, UniProt P06239 7-35, looked up, cysteine pairing not given here; also: 15N isotope labelling) [recombinant Lck (residues 7-35), 15N-labelled]",pKa of the pH-dependent disruption of the complex,4.55 ± 0.1

# From PMC9106921 (Nature immunology, 2022)
